Literature values, collected in paper PMC5672155.
One block for each substance: values may come before it.

Tests used:
LC3 (Homo sapiens) = LC3 (Homo sapiens) (UniProt Q9GZQ8)
Sec61α (Homo sapiens) = Sec61α (Homo sapiens) (UniProt P61619)
Sec63 (Homo sapiens) = Sec63 (Homo sapiens) (UniProt Q9UGP8)
Sec62 (Homo sapiens) = Sec62 (Homo sapiens) (UniProt Q99442)
Chain of UniProt Q99442 (Q99442 whole entry): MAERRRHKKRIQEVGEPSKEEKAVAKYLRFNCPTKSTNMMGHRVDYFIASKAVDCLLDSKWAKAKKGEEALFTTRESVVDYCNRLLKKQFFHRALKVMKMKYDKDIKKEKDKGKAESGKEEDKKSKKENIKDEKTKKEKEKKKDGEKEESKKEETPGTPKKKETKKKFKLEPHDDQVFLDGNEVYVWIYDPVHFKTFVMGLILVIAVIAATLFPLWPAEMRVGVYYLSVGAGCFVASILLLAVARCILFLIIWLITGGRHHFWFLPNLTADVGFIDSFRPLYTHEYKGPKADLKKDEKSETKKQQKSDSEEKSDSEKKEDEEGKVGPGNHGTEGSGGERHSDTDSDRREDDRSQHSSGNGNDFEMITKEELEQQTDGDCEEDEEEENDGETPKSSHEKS

Kd (LC3 (Homo sapiens)): 20 µM
Substance: Sec62 (from UniProt Q99442)

Kd (Sec61α (Homo sapiens)): 500 µM
Kd (Sec63 (Homo sapiens)): 5 µM
Substance: BiP (from UniProt P11021)

Kd (Sec62 (Homo sapiens)): 0.005 µM
Substance: Sec63 (from UniProt Q9UGP8)
